Experimental data as given in the DeepSol protein solubility set.

assay: soluble on expression in E. coli; label from the status in PepcDB or PDB records

Row | Sequence | soluble on expression in E. coli
1 | MVVVEQIKSQKIHGCQILETVYKHSCGGLPPVRSALEKILAVCHGVMYKQLSAWMLHGLLLDQHEEFFIKQGPSSGNVSAQPEEDEEDLGIGGLTGKQLRELQDLRLIEEENMLAPSLKQFSLRVEILPSYIPVRVAEKILFVGESVQMFENQNVNLTRKGSILKNQEDTFAAELHRLKQQPLFSLVDFEQVVDRIRSTVAEHLWKLMVEESDLLGQLKIIKDFYLLGRGELFQAFIDTAQHMLKTPPTAVTEHDVNVAFQQSAHKVLLDDDNLLPLLHLTIEYHGKEHKADATQAREGPSRETSPREAPASGWAALGLSYKVQWPLHILFTPAVLEKNRQF | soluble
2 | MGAKDKATGKSWSDVQQRLQQFHSQEFLNSLRGTTQFAGTDYRSKDLTPKKSRLLADTISAVYLDGYES | not soluble
3 | MLPLIRKMKPTDAAALTIINKEQLGYEVPVDVTCKQIEKLLLASDREFLYVYEETKTGKILGYVHAQLYETIYSQTLLNVLGLAVAKEAEGRGIGKQLMTKLETEAKKCNLSAIRLNSGEQRTAAHQFYEHIGYVSDKKQKRFIKYLDT | not soluble
4 | MRERGVAFFSGGKDGLYALYLAEKEGIEVPYLLTLKTSIGLSPHWENLSSLKALAENMGKKLLTFDMKYGSKALAEFISSLDVDYIIAGDVFLEDHLKWINLLAEKAGIKSFEPLWGKNTLELAKEMLNAGFKYSIIAVDKNKLEKTWLGYTFSSTRDIEIFIYENPTIDPLGEGGEFHTITLSSPLFKDEFTLEKISVEESERYWWMRFRVVGNDIKNVRVKGHNSRKDGLEHHHHHH | soluble
5 | FGLETVSENELAHSEEELRIILSESYKSGEINQSEFKYVNKIFEFDDRLAKEIMIPRTEIVSLPHDIKISEMMDIIQIEKYTRYPVEEGDKDNIIGVINIKEVLTACISGEVSVDSTISQFVNPIIHVIESAPIQDLLVKMQKERVHMAILSDEYGGTAGLVTVEDIIEEIVGEIR | soluble
6 | MGSDKIHHHHHHALLWFSRFQRTGKLCVSLGWLLLTLLSLQPVADSLLKPIEDTYPTWRGEQPVNYVVVLGGGYTWNPEWAPSSNLINNSLPRLTEGIRLWQANPGSKMIFTGAAAKTNPVSTAEAGARVAESLGVPRSDIIVLDRPKDTEEEALAVKRAIGDAPFLLVTSASHLPRAMIFFRHAGLDPLPAPANQLAVTSPLNPWERAIPSPVWLMHSDRVGYETLGRVWQWLKGSSGEPGQE | not soluble
7 | MSLTNKMIYDQASGLRRLTQPSVTKVISVTGGKGGVGKSNVTLGMAICMAKQGKKVMVLDADLGLANVDVMLGIRPKRNLGHVLAGECELKDAIVEGPHGIRIIPATSGTQSMTELSHAQHVGLIRAFGTLEDEMDILLIDTAAGISDMVVSFSRAAQDVVVVVCDEPTSITDAYALIKLLSKEHQVQRFKIVANMVRSYREGRELFAKLTLVTERFLNVSLELVACIPLDDNVRQAVKRQKIVVDAYPRSPAALAISSLANKALTWPIPRTPSGHLEFFVERLLNRSEGHHHHHH | soluble
8 | MSICTRKFINKLGFPNFGGESVQIAISGGKGWNWKIYSRHKSCSKMGVKRTLADLDVEAPNDHLLLGVSLANEEPVYQFMPHFDYLKCIKRRKCAKVCEEHAIVTLKDGTPFLMPTLCSGCRACEIVCPVPGAIREMAGDPLEHHHHHH | not soluble
9 | SAMAQKEEGHEAAAAEAKKETDLAHVDQVETFVGKEKYYVVKGTDKKGTALYVWVPADKKAKILSKEAKEGISEDKAAKIIKDEGLVSKQKEVHLAREGNVLLWEVTYLDKEGQYSLSYVDFTTGKILKNITP | soluble
10 | MGSDKIHHHHHHMAAGSTLWTRIPAMQQQNHPPYTLAIAQGESISLDPSHFTPEHWQALAAVTGTSKGRYTTWFVRHPEANQDWVLRHYWRGGLMEKFSKDRYLYTGMANTRAIAELALLEKLHAEGFPVPRPVGARVRRYALWYSADILIERMPGCRDLLAWLEQGPLDEAEWKALGVCIARFHHRGVYHADLNAKNILKGPQGFALIDFDRGEIRNPANSWQQANLSRLRRSFDKEKGKLPSLAFDESCWQWLLEGYAAA | not soluble
11 | NKYYKLGEIAQKVLVGGEKPADFSKEKNEVYKYPILSNNSKAEEFLVYSKTFRVEEKSITVSARGTIGAVFYRDFAYLPAVSLICFVPKEEFDIRFLFHALRAIKFKKQGSATGQLTVAQFKEYGIHVPSLKKQKEIAAILDPLYS | not soluble
12 | GSSAVNQENERLMEEYERLASELLEWIRRTIPWLENRTPEKTMQAMQKKLEDFRDYRRKHKPPKVQEKCQLEINFNTLQTKLRISNRPAFMPSEGKMVSDIAGAWQRLEQAEKGYEEWLLNEIRRLERLEHLAEKFRQKASTHETWAYGKEQILLQKDYESASLTEVRALLRKHEAFESDLAAHQDRVEQIAAIAQELNELDYHDAVNVNDRCQKICDQWDRLGTLTQKRREALERMEKLLETIDQLHLEFAKRAAPFNNWMEGAMEDLQDMFIVHSIEEIQSLITAHEQFKATLPEADGERQSIMAIQNEVEKVIQSYNIRISSSNPYSTVTMDELRTKWDKVKQLVPIRDQSLQEELARQHANERLRRQFAAQANAIGPWIQNKMEEIARSSIQITGALEDQMNQLKQYEHNIINYKNNIDKLEGDHQLIQEALVFDNKHTNYTMEHIRVGWELLLTTIARTINEVETQILTRD | soluble
13 | MSLNYNTPKVSIVVPSLNSISYIRECIDSILNQTLKDIEILCIDANSTDGTLEVLKNYEKKDKRLRVIISDKKSYGYQMNLGIKEAKGEYLGIVESDDYIKTNMYERLYEIAKKNDCEVVKGDFYIFAYGKTEYVNVLRNSCEDIYNYKVNWNKDIRIFLGSDGINPIGIYRLDLLRTNQIKLNETPGASYQDNGLWFQIFALAKSIYFINEAFYMLRRDNPNSSVKSKEKVYCACEEYDFIRDFLKKHPDLEKTLAPICALHRFGNYMFTLERIDERYKLDFLKRFSQDFRKILKDKELDENLFGNINMQRINKIIENPVIYYYFSRGARARLQNQLVYRLGKVVVEAKSFNKIIKLPFLMLKICLEHNFEHKVYRSIVQFRPDLKLLPLECYLDYHEALVIKEHLSYKFGKLILLSFKGWYKGKIFILPFMLKKRYKEYKNKMEGHHHHHH | soluble
14 | MRGSHHHHHHGSDLGRKLLEAARAGQDDEVRILMANGADVNAADNTGTTPLHLAAYSGHLEIVEVLLKHGADVDASDVFGYTPLHLAAYWGHLEIVEVLLKNGADVNAMDSDGMTPLHLAAKWGYLEIVEVLLKHGADVNAQDKFGKTAFDISIDNGNEDLAEILQKLN | soluble
15 | MGSDKIHHHHHHMKLHYKKEHISCTNYKSESYEGFGIGTLTSGSNFNSQTLSVKTNFLIFILEGEVEIIPKEGKIKRVIAQEFFFISALSTYEIQVRVPGRYIYMSFLYNDIKLCEKHMLESYLKEVREASEEVGILSVRHPLNLFLELIDAYLRAGVNCKHLHSIKEKELFIILRTSYSKQEIVNLFHEIIGTNMSFKAAVLLHVDRVNNREELAQAMGMSITDLARKFKVEFGESVYSWLLKQKNKKIIYRLAQPGASVKEIVYEFGFSSAASFNKYCKKNFGNSPRELVRQLKDKHIDNQNLKI | not soluble
16 | AQKLSATSRILSSSRGPAPDDIADFFGTDRAAQHITLRRLRLGNGRPYAIDNGWYNSEFAPDLLENDVYNSVYSILDRVYGVPVTQAEQTVTAVAADEDTARLLDVTPGAPLLRILRQSLSGDKPVEWCVSLYRTDRYS | not soluble
17 | MNQWRVIHNKSYEGAMNMAIDEAIFTAYKKGHNKPTLRFYTWEPACLSIGYFQKLEDEIDLDKCRCMNIDYTRRITGGRAVLHDNELTYSIIIGEDNPLIDKSINLSYRYISEGLVKGLNLSGIETDNLNRGERISRENLSAACFNAHASYEVTINNKKVIGSAQSRKDGVLLQHGSIILDFDVEKLFKLIKTKTPELKERAMKFTAKKASGIENEIGRKIDIDILQKNIVKGLAEQFNVEFVEGDLTDYEKQLVKELYEKYKNEEYN | not soluble
18 | MGSDKIHHHHHHMKPSGSAICIETAAMTMRFGSFTALDAVSIKVQAGSFHALLGENGAGKSTLVKCIMGFYRQTSGQLLVEDREVEIASPRDAAALGLGMVYQHFTLVPSLTGAENLVISRNAVPAMINWRRERQALNDFMATMPFQIPLERPVRELSAGEKQKLEIIKQLYLGRRFLILDEPTSVLTPAEADDMLGLVRSMTERGALTVLMISHKFHEVRKFADAVSVLRRGKLVGSGRTADLTTQEMAAMMIGDVKLAELDSRLPVVEASPSILSIRGMKTRDRSGLKSIEVDDLKVRAGEIVGIAGISGNGQKELAEVLAGQRPAEAGDITVKDRPYTATRQETRAANVRFIPEEPLLNACAPRMSVAENLSFRDFDVDAKGKTRFWLNAKAMRETAGRLIADFKVKTASPASPIASLSGGNVQRAVLARELTGDVDLLVVSNPCFGLDFSAVAEIRARIMKARNNGSAVLLFSEDLDELMEMSDRIVVMSDGRLVYETPARGADIAVIGAHMAGHA | not soluble
19 | MTELQHPVLVVDDETDILDLMEMTLMKMGLRVHTASGVAEAKNKLDSQRYSLVLTDMRMPDGSGLEVVQHINSRLLDTPVAVITAFGNADQAQEALRCGAFDPDTMQIQDYLDQIERDIIEQTLKQTEGNRTQAAKRLGISFRSMRYRMERLNIG | not soluble
20 | GPGSMWGRYVRVCTREQHSRKQLTSAGVPQGGVPGPKLFLHCVDDLLHRMDNIYSASAFMHADDLKLVASGADIHACAAAMQPALPLITKWAAEHSLKINVAKSESALFHISSHTRSDEDMVDLLPGNGNLRIQSCPVRLLDTTFDRLLNFGPHASTAAKRTMPRRYQLRPVAQAGASHHNTQSFSIGYVHIVLFHNGDAILPCFAHIYLHNMEVRYRDGRKTFLA | not soluble
21 | MGSSHHHHHHSSGRENLYFQGHMQWETVIGLEIHAQLATQSKIFSGSSTAFGAAPNTQASLVDLAMPGTLPVLNEEAVRMACLFGLAIDARIDRQNVFARKNYFYPDLPKGYQTSQMDHPIVGKGHLDITLEDGTTKRIGITRAHLEEDAGKSLHEDFQGMSGIDLNRAGTPLLEIVSEPDIRSAKEAVAYVKAIHALVRYLGICDGNMAEGSLRCDCNVSVRPKGQAEFGTRAEIKNVNSFRFIEKAINHEIQRQIELIEDGGKVVQETRLYDPNKDETRSMRGKEEANDYRYFPCPDLLPVVIEPEYLAKLREQLPELPVQKRERFESQYGLSAYDASVLSASREMADYFEKVQGICGDAKLAANWVMVELGSLLNKDGLEIEQSPVSAEQLGGMILRIKDNTISGKLAKMVFEAMANGEGSADQIIEAKGLKQVTDSGAIEKMLDEVLAANAEQVEQYRAADEAKRGKMFGFFVGQAMKASKGKANPQQVNELLKKKLEA | soluble
22 | MGSDKIHHHHHHMANLPWITIIGLGEDGPEGLPPASRDALAAAEIIMGPARHLALIGPTNAQQVEWPVPFADGIDVLRGHGGRPVAVLVSGDPFWYGAGRAMSKAFGRDAWRAIPVPSVFSLVSSRMGWPIEDTLCIGLHARPFEQLRAKLAPGRRIIATLRDGPAVSGVAHFLRDTGFGGSTLTVCEAVGGPREVVTQVSVAEALKGGFSHPVTVAVELHGTGEVIPLASGRPDALFQTDGVMTKRPVRALTLSALAPRAGEHLWDIGGGSGSIAVEWALADRTCTATVVETRADRVALIRANVESFGLTDQVTVLEGMAPGAMADAPPANAVFIGGGLSPEMLQFVTALPKGTRVVANAVTLEAEAHLAQAQGSFGGDLMRIEIAHAQPLGPKRGWTSAYPVVQWSVTL | not soluble
23 | MPREYDNLICYKQLSIDDHGKLKFFLEKHSTKEGTWGKLSLSEGEIDFIFQNGLGQELSRIRLDKNNRQLSIPPASWHKIIPISASFNAQLGFYCKPHRYFNKKYGLTEVHRDLLYVYHTYLSHLGSLTTLDVGCGSGRNLLYLTQLGHIVTGIDINQTALENIQIIAQKENLSLLNILSQDLNQPQALAPDHYDFVCSTVTLQFLNASRIPSLLIELQEATKKNGYHFLVFPVQSELYSLPSSFTFLPKQEELYHFYQDSGWSILEYKESVGHLHKQDEMGRPVQGLFALLLAQKVLLEHHHHHH | not soluble
